Results on 2 molecules are retold here after paper PMC9140564 (International Journal of Molecular Sciences, 2022).

Assay [1] deals with T1, large HBV surface protein (LHBS), full-length, expressed in 293T cells (Hepatitis B virus, strain ; …, UniProt P03141).
T1 construct: hepatitis B virus large surface protein: pre-S1 (119 a.a.), pre-S2 (55 a.a.) and S (227 a.a.) regions as printed; also called the full-length; source: 293T cells, transfected, in lysate
Nature of the assay: ELISA; lysates of 293T cells transfected with LHBS genes with partial deletions, tested for recognition by the monoclonal antibody. As to conditions: one partner purified. (ELISA stands for enzyme-linked immunosorbent assay.)

The target of assay [2] is T2, recombinant pre-S region protein of the HBV large surface protein (LHBS) (Hepatitis B virus, strain ; …, UniProt P03141).
T2 construct: also called pre-S region E. coli recombinant protein; source: E. coli BL21 (pET21b, IPTG 0.2 mM), purified
Nature of the assay: ELISA; antigen protein or peptide coated on the plate (0.1 ng/uL, or 10-fold serial dilutions), 4 °C overnight; purified monoclonal antibody added (serial dilutions or 1:2000 in PBST); PBST pH 7.4 washes; anti-mouse IgG-HRP, chemiluminescence read-out. As to conditions: both partners purified.

Assay [3] has as its target T3, pre-S1 oligopeptide of amino acids 25-38 (Hepatitis B virus, strain  …).
T3 construct: pre-S1 region of the hepatitis B virus large surface protein, amino acids 25-38; One of several oligopeptides spanning pre-S1 21-47; also called peptide containing amino acids 25–38; source: synthetic peptide
T3 chain: FPDHQLDPAFGANS
The description is as above. To be noted: both partners purified.

T2 sequence (P03141 whole entry, looked up): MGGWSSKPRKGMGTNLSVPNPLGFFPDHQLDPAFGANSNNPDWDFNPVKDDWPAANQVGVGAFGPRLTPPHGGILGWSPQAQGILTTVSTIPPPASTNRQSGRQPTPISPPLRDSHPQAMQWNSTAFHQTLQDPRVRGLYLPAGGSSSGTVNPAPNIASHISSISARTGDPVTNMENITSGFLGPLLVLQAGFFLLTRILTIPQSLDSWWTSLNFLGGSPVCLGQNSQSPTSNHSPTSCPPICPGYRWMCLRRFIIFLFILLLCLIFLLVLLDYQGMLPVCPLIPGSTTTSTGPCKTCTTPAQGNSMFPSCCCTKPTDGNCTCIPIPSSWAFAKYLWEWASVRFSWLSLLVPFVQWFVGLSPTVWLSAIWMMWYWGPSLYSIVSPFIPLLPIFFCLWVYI
T1 sequence (P03141 whole entry): as the sequence (P03141 whole entry, looked up) above

B1: anti-pre-S2 mouse monoclonal antibody (antibody, V domains shown)
VH: QVQLQQPGTELVKPGTSVKLSCKASGYTFTSYWMHWVKLRPGQGFEWIGEINPSNGITNYNEKFKRKATLTVDKSSTTAYMQLSSLTFEDSAVYYCTIGYDYGSNYEAMDFWGQGTSVTVSS
VL: DIVMTQAAFSNPVTLGTSASMSCRSSKSLLHSNGITYLYWYLQKPGQSPQLLIYQMSNLASGVPDRFSSGGSGTDFTLRISRVEAEDVGVYYCAQNLELPWTFGGGTKLEIK
notes: heavy chain CDR1; heavy chain CDR2; heavy chain CDR3; kappa light chain CDR1; kappa light chain CDR2; kappa light chain CDR3; Only the six CDRs are printed; Aliquots were conjugated with biotin for use as detection antibody in the sandwich ELISA; also called pre-S2 antibody; anti-pre-S2 region antibody; source: mouse hybridoma, ascites fluid, purified using IgG beads
Take B1: the binding result in assay [1] and in assay [2] was “binds” in each case.

B2: anti-pre-S1 mouse monoclonal antibody (clone N-term-7-21-5) (antibody, V domains shown)
VH: DVQLQESGPGLVKPSQSLSLTCTVTGYSITSDYAWNWIRQFPGNKLEWMGYIRYSGTTNYNPSLKSRISITRDTSKNQFFLQLNSVTTEDTATYYCARGGTGLTYWGQGTLVTVSA
VL: NIVMTQSPKSMSMSLGERVTLTCKASENVGTYVSWYQQKPEQSPKLLIYGASNRNTGVPDRFTGSGPATDFTLTISSVQAEDLADYLCGQTYNYPFTFGAGTKLELK
notes: heavy chain CDR1; heavy chain CDR2; heavy chain CDR3; kappa light chain CDR1; kappa light chain CDR2; kappa light chain CDR3; Only the six CDRs are printed; Coating antibody of the sandwich ELISA; also called pre-S1 antibody; LHBS-specific antibody; source: mouse hybridoma, ascites fluid, purified using IgG beads
Consider B2, for which the binding result in assay [2] and in assay [3] was “binds” throughout.
